Paper PMC4932183
Values belong to the substance of their own block, whether it stands above or below them.

Columns and labels:
[1] = target: myostatin mature domain (Homo sapiens) (UniProt O14793); conditions: cited from earlier work
[2] = target: myostatin mature domain mature domain (Homo sapiens) (UniProt O14793); conditions: cited from earlier work
[3] = target: Avi-tagged follistatin-288, biotinylated (UniProt P19883); assay: BLI; biotinylated Avi-tagged FST-288 immobilised on streptavidin biosensors; analytes in kinetic buffer (PBS, 0.1% bovine serum albumin, 0.02% Tween-20); 600 s association, 600 s dissociation; 30 °C
Chain of Avi-tagged follistatin-288, biotinylated (P19883 30-317): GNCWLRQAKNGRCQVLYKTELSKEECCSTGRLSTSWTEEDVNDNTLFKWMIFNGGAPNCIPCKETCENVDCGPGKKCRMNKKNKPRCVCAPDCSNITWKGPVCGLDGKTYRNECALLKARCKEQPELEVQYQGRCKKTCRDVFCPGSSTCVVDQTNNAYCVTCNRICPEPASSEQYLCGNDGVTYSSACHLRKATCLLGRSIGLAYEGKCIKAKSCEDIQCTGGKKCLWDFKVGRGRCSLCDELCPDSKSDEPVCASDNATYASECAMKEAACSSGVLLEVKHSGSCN

[4] = target: activin A mature domain (Homo sapiens) (UniProt P08476); conditions: cited from earlier work
Chain of activin A mature domain (Homo sapiens) (P08476 311-426): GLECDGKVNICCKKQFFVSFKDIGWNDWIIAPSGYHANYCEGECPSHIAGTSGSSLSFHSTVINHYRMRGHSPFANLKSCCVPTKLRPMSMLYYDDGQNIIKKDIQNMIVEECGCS

Chain of follistatin FST-288 (P19883 30-344): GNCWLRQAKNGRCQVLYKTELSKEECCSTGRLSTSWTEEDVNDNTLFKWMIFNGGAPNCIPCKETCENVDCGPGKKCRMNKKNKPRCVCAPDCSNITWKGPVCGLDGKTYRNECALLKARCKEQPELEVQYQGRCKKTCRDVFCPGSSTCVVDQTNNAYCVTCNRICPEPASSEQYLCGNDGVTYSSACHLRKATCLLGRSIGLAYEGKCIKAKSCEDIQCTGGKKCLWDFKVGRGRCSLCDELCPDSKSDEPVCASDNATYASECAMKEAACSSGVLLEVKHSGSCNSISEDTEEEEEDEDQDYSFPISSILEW
Chain of follistatin (P19883 30-344): as above
Chain of myostatin mature domain mature domain (Homo sapiens) (O14793 267-375): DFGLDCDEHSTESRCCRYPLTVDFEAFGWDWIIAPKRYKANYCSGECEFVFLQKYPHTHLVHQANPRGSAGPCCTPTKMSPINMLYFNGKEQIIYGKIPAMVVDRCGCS
Chain of myostatin mature domain (Homo sapiens) (O14793 267-375): as above
Chain of myostatin pro-domain pro-domain (O14793 24-266): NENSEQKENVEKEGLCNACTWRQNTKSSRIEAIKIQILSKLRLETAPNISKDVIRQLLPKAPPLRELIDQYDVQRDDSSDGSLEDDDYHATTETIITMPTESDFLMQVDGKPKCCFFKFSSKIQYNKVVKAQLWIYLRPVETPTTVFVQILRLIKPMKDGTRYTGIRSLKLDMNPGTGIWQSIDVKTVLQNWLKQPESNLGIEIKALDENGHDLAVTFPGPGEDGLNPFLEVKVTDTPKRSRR

Substance: follistatin (from UniProt P19883)
Kd [1]: 12.3 nM

Substance: myostatin pro-domain pro-domain (from UniProt O14793)
Kd [2]: 8.3 nM

Kd [3]: 0.259 nM
Substance: cleaved pro-activin A complex (pro-mature complex) (from UniProt P08476 311-426)

Substance: follistatin FST-288 (from UniProt P19883)
Kd [4]: 0.0465 nM
